Sequences and labels used below:
B1: Peroxisome proliferator-activated receptor gamma coactivator 1-alpha (Homo sapiens), Q9UBK2 (parent)
chain: MAWDMCNQDSESVWSDIECAALVGEDQPLCPDLPELDLSELDVNDLDTDSFLGGLKWCSDQSEIISNQYNNEPSNIFEKIDEENEANLLAVLTETLDSLPVDEDGLPSFDALTDGDVTTDNEASPSSMPDGTPPPQEAEEPSLLKKLLLAPANTQLSYNECSGLSTQNHANHNHRIRTNPAIVKTENSWSNKAKSICQQQKPQRRPCSELLKYLTTNDDPPHTKPTENRNSSRDKCTSKKKSHTQSQSQHLQAKPTTLSLPLTPESPNDPKGSPFENKTIERTLSVELSGTAGLTPPTTPPHKANQDNPFRASPKLKSSCKTVVPPPSKKPRYSESSGTQGNNSTKKGPEQSELYAQLSKSSVLTGGHEERKTKRPSLRLFGDHDYCQSINSKTEILINISQELQDSRQLENKDVSSDWQGQICSSTDSDQCYLRETLEASKQVSPCSTRKQLQDQEIRAELNKHFGHPSQAVFDDEADKTGELRDSDFSNEQFSKLPMFINSGLAMDGLFDDSEDESDKLSYPWDGTQSYSLFNVSPSCSSFNSPCRDSVSPPKSLFSQRPQRMRSRSRSFSRHRSCSRSPYSRSRSRSPGSRSSSRSCYYYESSHYRHRTHRNSPLYVRSRSRSPYSRRPRYDSYEEYQHERLKREEYRREYEKRESERAKQRERQRQKAIEERRVIYVGKIRPDTTRTELRDRFEVFGEIEECTVNLRDDGDSYGFITYRYTCDAFAALENGYTLRRSNETDFELYFCGRKQFFKSNYADLDSNSDDFDPASTKSKYDSLDFDSLLKEAQRSLRR
B2: Peroxisome proliferator-activated receptor gamma coactivator 1-alpha (Homo sapiens), Q9UBK2 (parent)
chain: B1 chain
partner: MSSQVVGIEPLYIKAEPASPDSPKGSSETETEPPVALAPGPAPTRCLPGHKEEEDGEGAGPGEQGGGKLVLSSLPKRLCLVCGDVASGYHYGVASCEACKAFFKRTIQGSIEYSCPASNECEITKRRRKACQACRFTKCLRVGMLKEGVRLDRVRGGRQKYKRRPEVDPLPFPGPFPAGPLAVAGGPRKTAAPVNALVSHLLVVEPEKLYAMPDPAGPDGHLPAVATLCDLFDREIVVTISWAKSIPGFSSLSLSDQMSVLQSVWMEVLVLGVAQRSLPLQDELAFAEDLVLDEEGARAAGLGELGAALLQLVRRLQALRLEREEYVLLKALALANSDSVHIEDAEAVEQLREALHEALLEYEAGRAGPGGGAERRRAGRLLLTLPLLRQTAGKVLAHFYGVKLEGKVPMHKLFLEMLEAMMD

The assay “rxra_human RXRA, P19793” covers variants of B1. Conditions: with rxra_human RXRA.
The variants in the assay “esr1_human ESR1, P03372” derive from B1. Conditions: with esr1_human ESR1, P03372.
Sequence of esr1_human ESR1, P03372 (P03372 whole entry): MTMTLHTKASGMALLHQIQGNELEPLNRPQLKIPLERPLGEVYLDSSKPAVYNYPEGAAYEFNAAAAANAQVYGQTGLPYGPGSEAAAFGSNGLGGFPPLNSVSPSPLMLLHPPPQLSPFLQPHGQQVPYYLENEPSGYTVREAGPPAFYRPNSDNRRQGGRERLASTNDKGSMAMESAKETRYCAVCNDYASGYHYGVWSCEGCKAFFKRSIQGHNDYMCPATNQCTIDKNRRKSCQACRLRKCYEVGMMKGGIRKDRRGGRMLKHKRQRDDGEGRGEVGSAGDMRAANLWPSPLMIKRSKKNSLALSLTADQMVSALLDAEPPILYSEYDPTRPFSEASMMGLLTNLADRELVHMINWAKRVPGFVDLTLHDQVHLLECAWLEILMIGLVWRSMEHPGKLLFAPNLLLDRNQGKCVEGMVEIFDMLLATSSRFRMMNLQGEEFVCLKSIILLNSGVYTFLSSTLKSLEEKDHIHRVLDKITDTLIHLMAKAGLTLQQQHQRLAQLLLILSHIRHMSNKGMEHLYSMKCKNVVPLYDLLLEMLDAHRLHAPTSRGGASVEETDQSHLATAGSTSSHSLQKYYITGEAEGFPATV
The variants in assay [1] derive from B2. Conditions: with err1_human ESRRA.
The variants in assay [2] derive from B2. The following applies: with err1_human ESRRA. This is another data set of the same source.

Sequence of rxra_human RXRA, P19793 (P19793 whole entry): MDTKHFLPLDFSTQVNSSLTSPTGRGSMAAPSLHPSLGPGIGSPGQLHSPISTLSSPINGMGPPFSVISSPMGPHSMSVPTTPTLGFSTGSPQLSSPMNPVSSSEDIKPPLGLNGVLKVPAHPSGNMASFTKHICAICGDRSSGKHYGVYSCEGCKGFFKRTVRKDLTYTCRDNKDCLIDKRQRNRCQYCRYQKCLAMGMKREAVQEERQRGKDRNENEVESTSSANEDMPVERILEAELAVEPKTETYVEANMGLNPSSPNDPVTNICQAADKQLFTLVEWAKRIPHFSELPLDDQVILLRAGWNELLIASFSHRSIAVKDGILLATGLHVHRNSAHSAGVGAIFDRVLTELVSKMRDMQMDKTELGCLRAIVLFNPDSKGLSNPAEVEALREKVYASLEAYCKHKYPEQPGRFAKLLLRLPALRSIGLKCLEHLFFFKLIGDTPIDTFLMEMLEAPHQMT

Turning to L147A;L148A;L210A;L211A, the “effect of a mutation on the interaction” value in the assay with rxra_human RXRA, P19793 is listed as “disrupting interaction strength”; in the assay with esr1_human ESR1, P03372 it was “disrupting interaction strength”.

For the variant L147A;L148A, the “effect of a mutation on the interaction” value is given as “disrupting interaction strength” with rxra_human RXRA, P19793 and “decreasing interaction strength” in the assay with esr1_human ESR1, P03372. In the same order, the values of L210A;L211A are “decreasing interaction strength” and “with no effect”. For L147A;L148A, the “effect of a mutation on the interaction” value with err1_human ESRRA, P11474 [1] is listed as “decreasing interaction strength”; with err1_human ESRRA, P11474 [2], “with no effect”.

Regarding L147A;L148A;L210A;L211A, the “effect of a mutation on the interaction” value with err1_human ESRRA, P11474 [1] is reported as “disrupting interaction strength”.

As for L210A;L211A, the “effect of a mutation on the interaction” value is “decreasing interaction strength” with err1_human ESRRA, P11474 [1] and “with no effect” in the assay with err1_human ESRRA, P11474 [2].

For the origin of these results see IntAct's records for PubMed 12522104.
